{"source": "paper PMC5007356", "key": {"[1]": {"target": "GFP-Spd2 (Drosophila melanogaster)", "assay": "co-IP; anti-GFP immunoprecipitation with GFP-Trap-A beads from D. mel-2 cell lysates, 2 h at 4 °C; 10 mM Tris-HCl pH 7.5, 150 mM NaCl, 0.5 mM EDTA, NP40; immunoblot; band intensities quantified in ImageJ"}, "[2]": {"target": "GFP-Cdc27 (Drosophila melanogaster)", "assay": "co-IP; anti-GFP immunoprecipitation with GFP-Trap-A beads from D. mel-2 cell lysates, 2 h at 4 °C; 10 mM Tris-HCl pH 7.5, 150 mM NaCl, 0.5 mM EDTA, NP40; immunoblot; band intensities quantified in ImageJ"}}, "data": [{"molecule": "Fzr (endogenous) (from UniProt O18402 1-478) (natural protein)", "values": [{"measurement": "precipitation efficiency (percent of input co-precipitated)", "setting": "[1]", "result": 14.5, "unit": "%"}]}, {"molecule": "Cdc27 (endogenous) (natural protein)", "values": [{"measurement": "precipitation efficiency (percent of input co-precipitated)", "setting": "[1]", "result": 4.55, "unit": "%"}]}, {"molecule": "Spd2 (endogenous) (from UniProt Q9VV79 1-1146) (natural protein)", "values": [{"measurement": "co-IP efficiency", "setting": "[2]", "result": "2.7e-07"}]}, {"molecule": "Fzy (endogenous) (natural protein) MSQFNFVSDLQNALIMDGETRGPAPRWKKKLEASLNGSVNTTRSVLSVSYNTSFSGVQAPTKTPGKSSEGKTKKSNTTPSKTPGGGDRFIPNRAATNFELAHFLVNKDSGDKSDEENDKATSSNSNESNVQASAHKGDRQKLISEVAQVGDSKGGRILCYQNKAPAAPETHNNPLKVVYSIKTPISTKSGSRYIPTTSERILDAPDFINDYYLNLMDWSADNIVAVALGSCVYLWNAQTGNIEQLTEFEEGDYAGSLSWIQEGQILAIGNSTGAVELWDCSKVKRLRVMDGHSARVGSLAWNSFLVSSGSRDGTIVHHDVRAREHKLSTLSGHTQEVCGLKWSTDFKYLASGGNDNLVNVWSAASGGVGTATDPLHKFNDHQAAVRALAWCPWQPSTLASGGGTADRCIKFWNVNNGTLMKSVDSKSQVCSLLFSRHYKELISAHGFANNQLTIWKYPTMVKQADLTGHTSRVLQMAMSPDGSTVISAGADETLRLWNCFAPDPLASKKAVSTSKGKQSVFRQSIR", "values": [{"measurement": "precipitation efficiency (percent of input co-precipitated)", "setting": "[1]", "result": 2.43, "unit": "%"}]}]}
